Data on five molecules can be found in patent US9274129B2, “Methods and reagents for detecting bioactive lipids” (Lpath, Inc., priority 2006, dated 2016).

“Also recorded” adds a separate entry of the source.

The test system of test [1] is SKOV3 cells. Nature of the test: Taxol-induced apoptosis (caspase activity). It is filed as cell-based, human. The settings on record: Taxol 0.5 mM, 24 h. The method, then:
The ability of LPA to protect ovarian tumor cells against apoptosis when exposed to clinically-relevant levels of the chemotherapeutic agent, paclitaxel (Taxol) was investigated. SKVO3 cells were treated with 1% FBS (S), Taxol (0.5 mM), +/−anti-LPA mAbs for 24 h. […] Apoptosis was assayed by measurement of the caspase activity as recommended by the manufacturer (Promega). As anticipated, LPA protected most of the cancer cell lines tested from taxol-induced cell death. […] Moreover, the anti-LPA antibody was able to remove the protection provided by serum. Serum is estimated to contain about 5-20 mM LPA. […] Taxol-induced caspase activation was enhanced by the addition of all 3 of the anti-LPA mAbs to the culture medium.

Test [2] deals with Caki-1 cells. Nature of the test: In vitro IL-8 production, Caki-1. It is filed as cell-based, human. As to conditions: 18:1 LPA 0.2 mM, 24 h, cells without mAb. The procedure: Three anti-LPA mAbs (B3, B7 and B58) were tested for their abilities to reduce in vitro IL-8 production compared to a non-specific antibody (NS). Caki-1 cells were seeded in 96 well plates and grown to confluency. After overnight serum starvation, cells were treated with 18:1 LPA (0.2 mM) with or without anti-LPA mAb B3, B7, B58 or NS (Non-Specific). After 24 h, cultured supernatants of renal cancer cells (Caki-1), treated with or without LPA and in presence of increasing concentrations of the anti-LPA mAbs B3, B7 and B58, were collected and analyzed for IL-8 levels using a commercially available ELISA kit (Human Quantikine Kit, R&D Systems, Minneapolis, Minn.). […] Similar results were obtained with the other well-known pro-angiogenic factor, VEGF. The inhibition of IL-8 release by the anti-LPA mAbs was also observed in other cancerous cell lines such as the pancreatic cell line Panc-1.

The subject of test [3] is selected human cancer cell lines. Briefly: LPA-induced cancer cell proliferation. The test is classed as cell-based. As to conditions: LPA 0.01 mM to 10 mM, 7 human-derived and one rat-derived line, dose dependent. The procedure: LPA is a potent growth factor supporting cell survival and proliferation by stimulation of Gi, Gq and G12/13 via GPCR-receptors and activation of downstream signaling events. Cell lines were tested for their proliferative response to LPA ([…]). Cell proliferation was assayed by using the cell proliferation assay kit from Chemicon (Temecula Calif.) (Panc-1) and the Cell-Blue titer from Pierce (Caki-1). Each data point is the mean of three independent experiments. […] Even though tumor-derived cells normally have high basal levels of proliferation, LPA appears to further augment proliferation in most tumor cell lines. Anti-LPA mAbs (B7 and B58) were assessed for the ability to inhibit LPA-induced proliferation in selected human cancer cell lines.

A short description of test [4]: Direct ELISA on S1P-coated plates, chimeric antibody and mutants. It is filed as binding. The settings on record: antibody 0.1 ug/ml. The method, then:
Microtiter ELISA plates (Costar) were coated overnight with S1P diluted in 1 M Carbonate Buffer (pH 9.5) at 37° C. for 1 hr. Plates were washed with PBS (137 mM NaCl, 2.68 mM KCl, 10.1 mM Na2HPO4, 1.76 mM KH2PO4; pH 7.4) and blocked with PBS/BSA/Tween-20 for 1 hr at room temp or overnight at 4° C. For the primary incubation (1 hr at room temp.), a standard curve using the anti-S1P mAb and the samples to be tested for binding was built using the following set of dilutions: 0.4 μg/mL, 0.2 μg/mL, 0.1 μg/mL, 0.05 μg/mL, 0.0125 μg/mL, and 0 μg/mL, and 100 μl added to each well. Plates were washed and incubated with 100 μl per well of HRP conjugated goat anti-mouse (1:20,000 dilution) (Jackson Immuno Research) or HRP conjugated goat anti-human (H+L) diluted 1:50,000 (Jackson Immuno Research) for 1 hr at room temperature. After washing, the enzymatic reaction was detected with tetramethylbenzidine (Sigma) and stopped by adding 1 M H2SO4. The optical density (OD) was measured at 450 nm using a Thermo Multiskan EX. Raw data were transferred to GraphPad software for analysis.
The chromogenic reaction was measured and reported as Optical density (OD). The concentration of the panel of antibodies was 0.1 ug/ml. No interaction of the second antibody with S1P-coated matrix alone was detected.
(In general: An ELISA detects its analyte on a solid surface through an enzyme-linked reagent.)

Test [5] in a line: ELISA with exchanged crosslinker or protein carrier in the laydown material. The test is classed as binding. From the text:
For example, the normal crosslinker SMCC was exchanged for IOA in conjugating the thiolated-S1P to BSA as the laydown material in the ELISA. […] Similarly, KLH was exchanged for BSA as the protein that was complexed with thiolated-S1P as the laydown material.

The nature of test [6]: Competitive ELISA of anti-S1P mAb, competitor SPC. It is filed as binding. The procedure:
(§1) Screening of serum and cell supernatant for SIP-specific antibodies was by direct ELISA using the thiolated S1P analog described in Example 1 (i.e., compound 10) as the antigen. A standard ELISA was performed, as described below, except that 50 ul of sample (serum or cell supernatant) was diluted with an equal volume of PBS/0.1% Tween-20 (PBST) during the primary incubation. ELISAs were performed in 96-well high binding ELISA plates (Costar) coated with 0.1 μg of chemically-synthesized compound 10 conjugated to BSA in binding buffer (33.6 mM Na2CO3, 100 mM NaHCO3; pH 9.5). The thiolated-S1P-BSA was incubated at 37° C. for 1 hr. at 4° C. overnight in the ELISA plate wells. The plates were then washed four times with PBS (137 mM NaCl, 2.68 mM KCl, 10.14 mM Na2HPO4, 1.76 mM KH2PO4; pH 7.4) and blocked with PBST for 1 hr. at room temperature. For the primary incubation step, 75 uL of the sample (containing the S1P to be measured), was incubated with 25 uL of 0.1 ug/mL anti-S1P mAb diluted in PBST and added to a well of the ELISA plate. […] Optical density of the samples was determined by measurement at 450 nm using an EL-X-800 ELISA plate reader (Bio-Tech).
(§2) For cross reactivity, a competitive ELISA was performed as described above, except for the following alterations (FIG. 4). […] Biotin incorporation was determined as per kit protocol and ranged from 7 to 11 biotin molecules per antibody. […]

Test [7] in a line: Competitive ELISA of anti-S1P mAb, competitor DH-S1P. It is filed as binding. The method, then:
as §1, §2

Test [8] can be described thus: Competitive ELISA of anti-S1P mAb, competitor C1P. It is filed as binding. The procedure: as §1, §2
A short description of test [9]: Competitive ELISA of anti-S1P mAb, competitor LPA. It is filed as binding. The method, then:
as §1, §2

Test [10] can be described thus: Competitive ELISA of anti-S1P mAb, competitor S1P. The test is classed as binding. The procedure: as §1, §2

As to `CC(=O)O[C@H]1C(=O)[C@@]2(C)[C@H]([C@H](OC(=O)c3ccccc3)[C@]3(O)C[C@H](OC(=O)[C@H](O)[C@@H](NC(=O)c4ccccc4)c4ccccc4)C(C)=C1C3(C)C)[C@]1(OC(C)=O)CO[C@@H]1C[C@@H]2O` [Taxol, paclitaxel], the “caspase-3,7 activation” value in [1] is on record as “induced caspase-3,7 activation”.

As for lysophosphatidic acid [LPA], the “increase of IL-8 expression” value in [2] was found to be 100%. Further, in test [3], the “proliferation of tumor cell lines” value is given as “increased proliferation”.

Regarding CysPhe, the Binding in test [4] was determined as 2 OD.

MetLeu showed a Binding in [4] of 1.6 OD.

B1: anti-S1P mAb: murine monoclonal antibody directed against S1P from hybridoma clone 306D326.26 (ATCC SD-5362) (antibody, listed as Mus musculus, V domains shown)
VH: QAHLQQSDAELVKPGASVKISCKVSGFIFIDHTIHWMKQRPEQGLEWIGCISPRHDITKYNEMFRGKATLTADKSSTTAYIQVNSLTFEDSAVYFCARGGFYGSTIWFDFWGQGTTLTVS
VL: ETTVTQSPASLSMAIGEKVTIRCITTTDIDDDMNWFQQKPGEPPNLLISEGNILRPGVPSRFSSSGYGTDFLFTIENMLSEDVADYYCLQSDNLPFTFGSGTKLEIK
For B1, the “binding characteristics with KLH exchanged for BSA as carrier” value in [5] (laydown thiolated-S1P complexed with protein) is “no significant difference”. Further, in test [5] (laydown thiolated-S1P conjugated to BSA, compared with BSA-SMCC-thiolated-S1P), the “binding characteristics with IOA instead of SMCC as crosslinker” value is “nearly identical”. Moreover, the “competition by SPC for mAb binding to S1P on the plate” value in test [6] was “somewhat reduced; also recorded: only slightly competes for binding”. Moreover, the “competition by free DH-S1P for mAb binding to S1P on the plate” value in test [7] is reported as “can compete for binding”. For the same molecule, in test [8], the “antibody binding to C1P” value is “no antibody binding was observed”. Moreover, the “antibody binding to LPA” value in test [9] is “no binding”. In [10], the “competition by free S1P for mAb binding to S1P on the plate” value was “can compete for binding” and the “distinction of thiolated-S1P analog (compound 10) from natural S1P” value is “unable to distinguish”.
